Data published in patent publication US20250361274A1, “PEPTIDE AND PEPTIDE-CONTAINING AGENT” (PEPTIDREAM INC., priority 2022, published 2025).
Numbered stars: 1 amine (or outer) side, 2 acyl side, 3 side chain; on linkers, the order of the positions; unused ones are H or OH. Bridge positions count the residues as written; N and C are the ends. Square brackets hold non-standard residues; d marks the D form. Ends that are not written are not given here. Peptide text beside a SMILES is read from it. KCOpipzaa = N6-(4-(carboxymethyl)piperazine-1-carbonyl)-L-lysine, O=C(NCCCC[C@H](N[*:1])C(=O)[*:2])N1CCN(CC(=O)[*:3])CC1; F3aa = (S)-2-amino-3-[3-(carboxymethyl)phenyl]propanoic acid, O=C([C@H](Cc1cccc(CC(=O)[*:3])c1)N[*:1])[*:2]; 3Pal(6-Ph) = N[C@@H](Cc1ccc(-c2ccccc2)nc1)C(=O)O; Phe(4-COOH) = N[C@@H](Cc1ccc(C(=O)O)cc1)C(=O)O; NMePhe(4-Me) = CN[C@@H](Cc1ccc(C)cc1)C(=O)O; Bip = N[C@@H](Cc1ccc(-c2ccccc2)cc1)C(=O)O; Phe(4-F) = N[C@@H](Cc1ccc(F)cc1)C(=O)O; Ala(4-THP) = N[C@@H](CC1CCOCC1)C(=O)O; Gly(4-THP) = N[C@H](C(=O)O)C1CCOCC1; cisHyp = O=C(O)[C@@H]1C[C@H](O)CN1; Hyp = O=C(O)[C@@H]1C[C@@H](O)CN1; NMeF = CN[C@@H](Cc1ccccc1)C(=O)O; hCit = NC(=O)NCCCC[C@H](N)C(=O)O; 4Pal = N[C@@H](Cc1ccncc1)C(=O)O; Aad = N[C@@H](CCCC(=O)O)C(=O)O; Cha = N[C@@H](CC1CCCCC1)C(=O)O; βAla = NCCC(=O)O

Target: T1, BMP4 (Homo sapiens, UniProt P12644)
T1 sequence (P12644 293-408): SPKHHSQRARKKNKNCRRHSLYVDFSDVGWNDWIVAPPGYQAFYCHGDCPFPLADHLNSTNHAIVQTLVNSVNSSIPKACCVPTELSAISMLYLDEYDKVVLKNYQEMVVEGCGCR
Test: BMP4 signal transduction inhibitory activity: SMAD1 phosphorylation by BMP4 stimulus, AlphaLISA SureFire, A549 cells
Type: cell-based
Conditions: BMP4 0.2 nM stimulus; peptide conc. in assay 0.02, 0.2, 2 nM; class symbols
Experimental: In the present Example, a BMP4 signal transduction inhibitory activity of each peptide consisting of an amino acid sequence set forth in any of SEQ ID NOs: 5 to 240 and 243 to 421 synthesized in Example 10 was verified by phosphorylation of SMAD1 caused by BMP4 stimulus. A549 cells were cultured in MEM (Thermo Fisher Scientific) containing 10% FBS (Thermo Fisher Scientific), 1×Non-essential amino acids (Thermo Fisher Scientific), and 50 μg/mL Gentamicin. After TrypLE (Gibco) was used to peel the cells, seeding was performed in a 96-well plate for adhesion cells so that the number of cells would be 20,000 per well, followed by culturing for 48 hours. After the cells were cultured as described above, the culture medium was replaced with a peptide solution or recombinant Human Noggin Protein (R&D) solution as a positive control diluted to various concentrations in a nutrition-starved culture medium containing 0.1% BSA (Sigma) instead of FBS Thirty minutes after culturing, […], to stimulate it for 60 minutes. The culture medium was removed and the cells were lysed with Lysis Buffer provided with AlphaLISA (registered trademark) SureFire (registered trademark) Ultra SMAD1 (p-[…]/465) Assay kit (PerkinElmer). According to the protocol of the kit, a signal was detected using SpectraMax (registered trademark) Paradigm (registered trademark) multimode microplate reader (Molecular Devices). The obtained signal was analysed using GraphPad Prism (GraphPad Software). The % inhibition was calculated by considering non-stimulation as 100% inhibition and BMP stimulation only as 0% inhibition. Regarding SEQ ID NOs: 5 to 187, the concentrations of the peptides synthesized in the same manner as in Example 2 (shown as 2 in the row of Synthesis) were 0.02 nM, 0.2 nM, and 2 nM, and the concentrations of the peptides synthesized in the same manner as in Example 1 (shown as 1 in the row of Synthesis) were 0.2 nM, 2 nM, and 20 nM. The evaluation results were based on the results of evaluation using the peptides synthesized in the same manner as in Example 2. […] Regarding SEQ ID NOs: 243 to 321, the test was performed at the concentrations described in Table 6. […] Regarding SEQ ID NOs: 322 to 421, the test was performed at the concentrations described in Table 7. […] The evaluation tests of the signal transduction inhibitory activities of SEQ ID NOs: 87, 177, and 181 are as follows. Specifically, the inhibitory activity of BMP4 was evaluated in the same manner as in Example 11 that used A549 cells. Eight concentrations of the peptides were used at a common ratio of 1/3 starting from 2 nM. The inhibitory activity of BMP7 was evaluated in the same manner as in Example 12. Eight concentrations of the peptides were used at a common ratio of 1/3 starting from 100 nM. Note that recombinant Human Noggin Protein (R&D) as a positive control was used at the same concentration as that of the peptide. […] The inhibitory activity of BMP7 was evaluated using eight concentrations of the peptides at a common ratio of 1/3 starting from 1,000 nM in the same manner as in Example 12.

Row | Molecule | aLIZA BMP4 (0.2 nM) % inh
1 | 289 (ERV[Phe(4-COOH)][Gly(4-THP)][KCOpipzaa]R[3Pal(6-Ph)][KCOpipzaa]Y[Hyp][Bip][4Pal][Phe(4-COOH)][Phe(4-COOH)]SCG-NH2; not fully specified (N-terminus, bridges); also: cyclic peptide, ring not given here) [compound 289] | C (showed less than 30% of inhibitory activity in 0.2 nM-addition zone and showed 30% or more of inhibitory activity in 2 nM-addition zone)

Same assay, conditions: class of inhibition of SMAD1 phosphorylation by BMP4 stimulus, AlphaLISA, A549 cells

Row | Molecule | aLISA BMP4
2 | 186 ({CH2CO}-E[KCOpipzaa]V[Phe(4-COOH)][Ala(4-THP)]DR[Bip]PY[cisHyp][Bip][Phe(4-F)][Phe(4-COOH)][4Pal]SC[βAla][dE]; thioether N-17) [compound 186] | A (showed an inhibitory activity of 50% or more in a zone to which the peptide was added to in an amount of 0.2 nM)
3 | 184 ({CH2CO}-ERVY[Ala(4-THP)][KCOpipzaa]R[Bip]PYP[Bip]Y[Phe(4-COOH)][Phe(4-COOH)]SC[βAla][dE]; thioether N-17) [compound 184] | A (showed an inhibitory activity of 50% or more in a zone to which the peptide was added to in an amount of 0.2 nM)
4 | 183 ({CH2CO}-ERVY[Ala(4-THP)][KCOpipzaa]R[Bip]PY[cisHyp][Bip]Y[Phe(4-COOH)][Phe(4-COOH)]SC[βAla][dE]-OH; thioether N-17; not fully specified) [compound 183] | A (showed an inhibitory activity of 50% or more in a zone to which the peptide was added to in an amount of 0.2 nM)
5 | 169 ({CH2CO}-E[hCit]VY[Ala(4-THP)]DR[Bip]SYV[Bip]Y[Phe(4-COOH)][Phe(4-COOH)]HC[βAla][dE]-OH; thioether N-17; not fully specified) [compound 169] | C (showed an inhibitory activity of less than 50% in 0.2 nM-addition zone and showed an inhibitory activity of 50% or more in 2 nM-addition zone were defined as B or C)
6 | 185 ({CH2CO}-E[KCOpipzaa]V[Phe(4-COOH)][Ala(4-THP)]DR[Bip]PY[F3aa][Bip][Phe(4-F)][Phe(4-COOH)][4Pal]SC[βAla][dE]; thioether N-17) [compound 185] | C (showed an inhibitory activity of less than 50% in 0.2 nM-addition zone and showed an inhibitory activity of 50% or more in 2 nM-addition zone were defined as B or C)
7 | 164 ({CH2CO}-ERVYVDR[Bip]SYV[Bip]Y[Phe(4-COOH)][Phe(4-COOH)]HC[βAla][dE]-OH; thioether N-17; not fully specified) [compound 164] | A (showed an inhibitory activity of 50% or more in a zone to which the peptide was added to in an amount of 0.2 nM)
8 | 182 ({CH2CO}-ERVY[Ala(4-THP)][KCOpipzaa]R[Bip]PY[F3aa][Bip]Y[Phe(4-COOH)][Phe(4-COOH)]SC[βAla][dE]-OH; thioether N-17; not fully specified) [compound 182] | A (showed an inhibitory activity of 50% or more in a zone to which the peptide was added to in an amount of 0.2 nM)
9 | 180 ({CH2CO}-ERV[Phe(4-COOH)][Ala(4-THP)][KCOpipzaa]R[Bip]PY[cisHyp][Bip]Y[Phe(4-COOH)][Phe(4-COOH)]SC[βAla][dE]-OH; thioether N-17; not fully specified) [compound 180] | A (showed an inhibitory activity of 50% or more in a zone to which the peptide was added to in an amount of 0.2 nM)
10 | 163 ({CH2CO}-ERVYVDR[Bip]SYY[Bip]Y[Phe(4-COOH)][Phe(4-COOH)]SC[βAla][dE]-OH; thioether N-17; not fully specified) [compound 163] | A (showed an inhibitory activity of 50% or more in a zone to which the peptide was added to in an amount of 0.2 nM)
11 | 178 ({CH2CO}-ERV[Phe(4-COOH)][Ala(4-THP)]DR[Bip]PYV[Bip]Y[Phe(4-COOH)][Phe(4-COOH)]SC[βAla][dE]-OH; thioether N-17; not fully specified) [compound 178] | A (showed an inhibitory activity of 50% or more in a zone to which the peptide was added to in an amount of 0.2 nM)
12 | 179 ({CH2CO}-ERV[Phe(4-COOH)][Ala(4-THP)][KCOpipzaa]R[Bip]PY[F3aa][Bip]Y[Phe(4-COOH)][Phe(4-COOH)]SC[βAla][dE]-OH; thioether N-17; not fully specified) [compound 179] | C (showed an inhibitory activity of less than 50% in 0.2 nM-addition zone and showed an inhibitory activity of 50% or more in 2 nM-addition zone were defined as B or C)
13 | 187 ({CH2CO}-E[KCOpipzaa]V[Phe(4-COOH)][Ala(4-THP)]DR[Bip]PYP[Bip][Phe(4-F)][Phe(4-COOH)][4Pal]SC[βAla][dE]; thioether N-17) [compound 187] | C (showed an inhibitory activity of less than 50% in 0.2 nM-addition zone and showed an inhibitory activity of 50% or more in 2 nM-addition zone were defined as B or C)

Target: T2, BMP7 (Homo sapiens, UniProt P18075)
T2 sequence (P18075 293-431): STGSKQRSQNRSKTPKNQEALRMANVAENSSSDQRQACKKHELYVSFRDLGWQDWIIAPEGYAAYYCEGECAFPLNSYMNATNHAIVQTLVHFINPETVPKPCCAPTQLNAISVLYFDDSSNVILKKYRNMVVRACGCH
Test: BMP7 signal transduction inhibitory activity: SMAD1 phosphorylation by BMP7 stimulus, A549 cells
Type: cell-based
Conditions: BMP7 10 nM stimulus; peptide conc. in assay 100, 300, 1000 nM; class symbols
Experimental: In the present Example, BMP7 signal transduction inhibitory activity of each peptide consisting of an amino acid sequence set forth in any of SEQ ID NOs: 5 to 240 and 243 to 421 synthesized in Example 10 was verified by phosphorylation of SMAD1 caused by BMP7 stimulus. The evaluation was performed using 10 nM of BMP7 instead of BMP 4. Regarding SEQ ID NOs: 5 to 240, the concentrations of the peptides synthesized in the same manner as in Example 2 (shown as 2 in the row of Synthesis) were 1 nM, 10 nM, and 100 nM, and the concentrations of the peptides synthesized in the same manner as in Example 1 (shown as 1 in the row of Synthesis) were 10 nM, 100 nM, and 1,000 nM, similarly with Example 11. […] Regarding SEQ ID NOs: 243 to 273 and SEQ ID NOs: 299 to 321, the test was performed at the concentrations (10, 100, 1,000 nM) described in Table 6. […] Regarding SEQ ID NOs: 274 to 298, the test was performed at the concentrations (100, 300, 1,000 nM) described in Table 6. […] Regarding SEQ ID NOs: 322 to 370 and SEQ ID NOs: 393 to 421, the test was performed at the concentrations (1, 10, 100 nM). […] Regarding SEQ ID NOs: 371 to 391, the test was performed at the concentrations (10, 30, 90 nM). […] The evaluation tests of the signal transduction inhibitory activities of SEQ ID NOs: 87, 177, and 181 are as follows. Specifically, the inhibitory activity of BMP4 was evaluated in the same manner as in Example 11 that used A549 cells. Eight concentrations of the peptides were used at a common ratio of 1/3 starting from 2 nM. The inhibitory activity of BMP7 was evaluated in the same manner as in Example 12. Eight concentrations of the peptides were used at a common ratio of 1/3 starting from 100 nM. Note that recombinant Human Noggin Protein (R&D) as a positive control was used at the same concentration as that of the peptide. […] The inhibitory activity of BMP7 was evaluated using eight concentrations of the peptides at a common ratio of 1/3 starting from 1,000 nM in the same manner as in Example 12.

Row | Molecule | aLIZA BMP7 (10 nM) % inh
14 | 289 (ERV[Phe(4-COOH)][Gly(4-THP)][KCOpipzaa]R[3Pal(6-Ph)][KCOpipzaa]Y[Hyp][Bip][4Pal][Phe(4-COOH)][Phe(4-COOH)]SCG-NH2; not fully specified (N-terminus, bridges); also: cyclic peptide, ring not given here) [compound 289] | ND (the inhibitory activity was less than 30% at the maximum concentration evaluated)

Same assay, conditions: Table 2-2; 277 from 1,000 nM (1/3), 417 from 300 nM (1/4)

Row | Molecule | IC50 [nM]
15 | Cc1ccc(C[C@H]2C(=O)N[C@@H](CC(C)C)C(=O)N3C[C@@H](O)C[C@H]3C(=O)N[C@H](C(=O)NCCC(=O)N[C@H](CCC(=O)O)C(=O)O)CSCC(=O)N[C@@H](Cc3ccc(F)cc3)C(=O)NCC(=O)N(C)[C@@H](Cc3ccccc3)C(=O)NCC(=O)N[C@@H](Cc3ccc(-c4ccccc4)nc3)C(=O)NCC(=O)N[C@@H](CC(=O)O)C(=O)N[C@@H](CCC(=O)O)C(=O)N[C@@H](CC3CCCCC3)C(=O)N[C@@H](CCCC(=O)O)C(=O)N2C)cc1 [Peptide 417] ({CH2CO}-[Phe(4-F)]G[NMeF]G[3Pal(6-Ph)]GDE[Cha][Aad][NMePhe(4-Me)]L[cisHyp]C[βAla][dE]-OH; thioether N-14) | 15.6
